These results are taken from patent US12653899B2, “Multi-targeted, tunable, sustained delivery of payloads to charged avascular tissues” (Massachusetts Institute of Technology, priority 2019, dated 2026).

Data set [1] has as its system human ankle cartilage explants. In words: Quantitative uptake of fusion proteins in human ankle cartilage (uptake ratio). In kind it is in vitro ADME. The note with it: 1 μM in PBS + 1% BSA. The method, then:
Cartilage explants were incubated in 250 μL of 1 μM solutions of different fusion proteins dissolved in 1×PBS+1% BSA for either 36 hours (FIG. 4A) or for 108 hours (FIG. 4B) (4.5 days). A group with free +9 GFP dissolved in 1×PBS+1% BSA (1 μM concentration) was included as a control for each of these two time points. An additional untreated control was included in these experiments. Cartilage explants were incubated in plain 1×PBS+1% BSA to account for and to correct for any autofluorescence effects. At the end of the incubation in the 1×PBS+1% BSA: The explants were transferred to a 10×PBS+1% BSA bath for 48 hours. The purpose of this was to desorb the GFPs taken up by the explants. The amount of GFPs left behind in the […] bath was quantified through fluorescence measurements. The desorption step in 10×PBS+1% BSA was followed by a second desorption step using fresh 10×PBS+1% BSA just to ensure any GFPs left in the explant after the 1st desorption come out. At the end of each desorption step, the fluorescence of the 10×PBS+1% BSA bath was measured. After the 2nd desorption step, the explants were digested in Proteinase K and their fluorescence was measured. The uptake ratio for the 36 hour and 108 hour experiments was calculated as (FIG. 4C): […]
Cartilage explants that had been equilibrated in culture medium post-harvest were transferred to sterile PBS and allowed to equilibrate for 1 hour before the start of the experiments. Sterile PBS solutions containing 1% bovine serum albumin (BSA) were prepared. Following this, 1 μM solutions of (+9GFP), (+9GFP)-(GGGGS)4-(IGF-1) (SEQ ID NO: 7), (+9GFP)-(EAAAK)3-(IGF-1) (SEQ ID NO: 8) and (+9GFP)-(GGGGS)3-(IGF-1) (SEQ ID NO: 9) were prepared. The BSA was included in the PBS to minimize loss of GFPs in the solution caused by non-specific binding to the plasticware. […] In contrast, use of polypropylene with 1% BSA enabled complete recovery of fluorescence.
At the end of the incubation period, cartilage explants were washed with PBS and transferred to a solution of 10×PBS+1% BSA for desorption. At the same time, the fluorescence of the absorption bath was measured using a plate reader (Synergy H1, Biotek Instruments Inc.) (excitation: 485 nm, emission: 528 nm). […] At the end of the desorption in 10×PBS+1% BSA, cartilage explants were weighed, and the fluorescence of the desorption bath was measured. This fluorescence measurement was used with a standard curve and the explant wet weights to calculate the concentration of GFP inside cartilage explants (mol/mg wet weight). The uptake ratio was calculated as the ratio of GFP concentration inside cartilage (mol/mg wet weight) to the final absorption bath concentration (mol/mL).

For data set [2], the system named is human ankle cartilage explants treated with IL-1β. In words: Cumulative sGAG loss and final sGAG content (DMMB) in IL-1β challenge, human ankle cartilage. The class given is cell-based. The note with it: 100 pg/ml IL-1β alone; 10-day time point. The method, then: (§1) Preliminary dose response experiments were performed to test the effects of human IL-1β (PeproTech, Rocky Hill, NJ) on human ankle cartilage. Ankle cartilage explants from two different donors (equilibrated in culture medium post-harvest) were cultured in serum-free low glucose medium (same composition as equilibration medium) and treated with continuous IL-1β doses ranging from 10 pg/ml to 1 ng/ml for 8 days. The experiments also included groups of explants that were treated with 300 ng/ml free IGF-1 at each dose level of IL-1β. Based on the results of these experiments, 100 pg/ml IL-1β was chosen as the dose used for the fusion protein dose response experiments. In these experiments, ankle and knee cartilage explants (equilibrated in culture medium post-harvest) were treated continuously with IL-1β and received single doses of fusion proteins (ranging from 39.2 nM to 2 μM) at the start of the experiments. Media changes with IL-1β but without fusion proteins were performed once every 2 to 3 days. An untreated control group, a control with continuous IL-1β alone, and a control with IL-1β combined with continuous free IGF-1 (300 ng/ml or 39.2 nM) were included. Experiments were terminated at 7-day and 10-day timepoints, and the sGAG biosynthesis rate, metabolic rate, sGAG loss to culture medium and sGAG content of the explants were measured.
The metabolic rate of cartilage explants was measured using the Alamar Blue assay (ThermoFisher). Cartilage explants were incubated for 3 hours in a 1× solution of Alamar Blue dissolved in culture medium. At the end of the incubation period, the absorbance of the medium at 570 nm and 600 nm was measured using a microplate reader (Synergy H1 Hybrid Multi-Mode Microplate Reader, BioTek). These readings were used to calculate the percentage reduction of Alamar Blue, which is directly proportional to the explant metabolic rate. These values were first normalized by individual explant weights. Following this, the weight-normalized readings for the treatment groups were normalized by the weight-normalized mean value for the untreated controls. To measure the chondrocyte biosynthesis rate of sulfated glycosaminoglycans (sGAGs), cartilage explants were cultured in the presence of 10 μCi/mL 35S-sulfate radiolabel during the final two days of each experiment. […] To calculate the cumulative loss of GAGs from the explants, the amount of sGAG lost to the medium and that left behind in the explants at the end of the experiment were measured using the dimethylene blue (DMMB) dye binding assay (Farndale et al., Biochim Biophys Acta. 883(2):173-177 (1986)).

The test system is the same in data set [3]. The data set can be described thus: IL-1β cytokine challenge model, sGAG biosynthesis rate in human ankle cartilage explants. The class given is cell-based. The note with it: 100 pg/ml (Experiment 5A also 500 pg/ml and 1000 pg/ml) human IL-1β alone; days 6-8. The method, then: Cartilage was harvested from the ankles of a donor (Collins Grade 1) and a donor (Collins Grade 1). Cartilage explants were equilibrated in culture media for 2 days after harvest. […] These were cut down to 1 mm thickness and allowed to equilibrate for a further 2 days before experiments were set up. Human IL-1β was used to induce osteoarthritis-like changes in cartilage. Experiments were set up to identify IL-1β doses at which 40 nM of free IGF-1 can rescue the IL-1β induced biosynthesis loss in cartilage. A dose response experiment in which single doses of (+9GFP)-(GGGGS)4-(IGF-1) (SEQ ID NO: 7) and (+9GFP)-(EAAAK)3-(IGF-1) (SEQ ID NO: 8) were added along with 100 pg/ml human IL-1β was also set up.
Experimental groups (N=8 to 10 cartilage explants in each group): Untreated control (Ctrl in FIG. 6A and FIG. 6B), 10 pg/mL human IL-1β (10 pg/ml IL-1b in FIG. 6A and FIG. 6B), 10 pg/mL human IL-1β+40 nM IGF-1 (10 pg/ml IL-1b+40 nM IGF-1 in FIG. 6A and FIG. 6B), 100 pg/mL human IL-1β (100 pg/ml IL-1b in FIG. 6A and FIG. 6B), 100 pg/mL human IL-1β+40 nM IGF-1 (100 pg/ml IL-1b+40 nM IGF-1 in FIG. 6A and FIG. 6B), 500 pg/mL human IL-1β (500 pg/ml IL-1b in FIG. 6A and […]), 500 pg/mL human IL-1β+40 nM IGF-1 (500 pg/ml IL-1b+40 nM IGF-1 in FIG. 6A and FIG. 6B), 1000 pg/mL human IL-1β (1 ng/ml IL-1b in FIG. 6A and FIG. 6B), 1000 pg/mL human IL-1β+40 nM IGF-1 (1 ng/ml IL-1b+40 nM IGF-1 in FIG. 6A and FIG. 6B). Media changes were performed every 2 days and the experiment was terminated after 8 days.
Chondrocyte biosynthesis rate (primarily aggrecan synthesis) was measured between days 6 and 8 of the experiment using a 35S-sulfate radiolabel. Statistics: 1-way ANOVA with post-hoc Tukey's HSD test.
This experiment was set up with cartilage explants from the donor ankle. Experimental groups (N=8 to 10 cartilage explants in each group): Untreated control (Ctrl in FIG. 6C), Continuous human IL-1β control (100 pg/ml dose added with every media change) (IL-1b in FIG. 6C), Continuous human IL-1β+continuous free IGF-1 control (100 pg/ml human IL-1β and 40 nM free IGF-1 dose added with every media change) (IL-1b+IGF1 FIG. 6C), Continuous human IL-1β+(+9GFP)-(GGGGS)4-(IGF-1) (SEQ ID NO: 7) 500 nM single dose (100 pg/ml human IL-1β added with every media change; Single 500 nM fusion protein dose added on Day 0) (IL-1b+0.5 μM Flex-1 in FIG. 6C), Continuous human IL-1β+(+9GFP)-(GGGGS)4-(IGF-1) (SEQ ID NO: 7) 1 μM single dose (100 pg/ml human IL-1β added with every media change; Single 1 μM fusion protein dose added on Day 0) (IL-1b+1 μM Flex-1 in FIG. 6C), Continuous human IL-1β+(+9GFP)-(EAAAK)3-(IGF-1) (SEQ ID NO: 8) 500 nM single dose (100 pg/ml human IL-1β added with every media change; Single 500 nM fusion protein dose added on Day 0), Continuous human IL-1β+(+9GFP)-(EAAAK)3-(IGF-1) (SEQ ID NO: 8) 1 μM single dose (100 pg/ml human IL-1β added with every media change; Single 1 μM fusion protein dose added on Day 0) (IL-1b+1 μM Rig-1 in FIG. 6C).
as §1, with “Media changes with IL-1β but without fusion proteins were performed once every 2 to 3 days. An untreated control group, a control with continuous IL-1β alone, and a control with IL-1β combined with continuous free IGF-1 (300 ng/ml or 39.2 nM) were included. Experiments were terminated at 7-day and 10-day timepoints, and the sGAG biosynthesis rate, metabolic rate, sGAG loss to culture medium and sGAG content of the explants were measured.” left out

Take “(+9GFP)-(GGGGS)3-(IGF-1): fusion protein of +9 GFP and human IGF-1 with flexible (GGGGS)3 linker, SEQ ID NO: 9”: the “Uptake ratio (Mean)” value in data set [1] (36 hr) was 13.1; in data set [1] (108 hr) it was 24.2.
As to “IL-1β: human IL-1β (PeproTech), cytokine used to induce osteoarthritis-like biosynthesis loss in cartilage explants [reference compound]”, in data set [2], the “cumulative sGAG loss compared to the untreated control” value is “higher cumulative sGAG loss”. Further, the “aggrecan biosynthesis compared to the untreated control” value in data set [3] was “significant reduction”.
